According to patent US20200325475, “DNA APTAMER […] BINDING TO CFP10, AND USE […]” (MD APTUS INC., published 2020):

Experiments:
ESAT6 = ESAT6 (UniProt P9WNK7 P9WNK7:1-95); assay: impedance biosensor, 10 pM protein in PBS
Excerpt: At this time, each protein was mixed at a concentration of 10 pM with PBS and used for detection.

[1] = target: CFP10 (culture filtrate protein 10 kDa) (Mycobacterium tuberculosis H37Rv, UniProt P9WNK5 P9WNK5:1-100); assay: Cy3-aptamer binding to CFP10 on magnetic beads, fluorescence; 20 mM Tris, 50 mM NaCl, 5 mM KCl, 5 mM MgCl2, pH 8.0; details: tags: His6 tag, expressed from pET32a in E. coli BL21(DE3); label: Cy3 (fluorescence Kd assay)
Method: 400 pmole of CFP10 was mixed with 10 μL of magnetic beads, and then incubated in 100 μL of a binding buffer (20 mM Tris, 50 mM NaCl, 5 mM KCl, 5 mM MgCl₂, pH 8.0) for 1 hour. To separate unbound CFP10, washing was performed twice with a binding buffer. Subsequently, the resulting mixture was incubated together with various concentrations of a Cy3-labeled aptamer, and an unbound aptamer was removed by washing. The amount of Cy3-labeled ssDNA aptamer bound to the magnetic beads with CFP10 immobilized thereon was measured by fluorescence measurement (1420 Victor Multilabel counter, PerkinElmer, USA) by separating only Cy3-labeled ssDNA bound to CFP10. As a result, as shown in FIG. 3 and Table 2 below, the Kd value of the DNA aptamer having a CG6 base sequence was measured.

Chain of CFP10 (culture filtrate protein 10 kDa) (P9WNK5 whole entry, one chain of several): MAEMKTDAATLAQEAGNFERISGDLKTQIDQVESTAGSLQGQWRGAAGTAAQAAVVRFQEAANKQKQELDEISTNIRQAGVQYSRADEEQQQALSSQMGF
Chain of ESAT6 (P9WNK7 whole entry, one chain of several): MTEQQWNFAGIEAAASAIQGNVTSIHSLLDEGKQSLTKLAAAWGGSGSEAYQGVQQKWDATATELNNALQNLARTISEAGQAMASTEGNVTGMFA

B1: CG6 (ssDNA)
DNA: CACCTAATACGACTCACTATAGCGGATCCGACCTAGGTTCAGAAGGCTTTCTATTTTCCCGGTGCCTCGCACTGGCTCGAACAAGCTTGC
For B1, the binding result (ESAT6) was “no binding” and the Kd [1] was 92.8 nM.
